B1: CPEB3 Ribozyme (parent)
chain: UAACAGGGGGCCACAGCAGAAGCGUUCACGUCGCAGCCCCUGUCAGAUUCUGGUGAAUCUGCGAAUUCUGCUGUAUAUCUC

Variants of: B1
Test: self-cleavage, relative activity (ratio to wild type); higher = more cleavage; in vitro, sequencing
Summary of the method: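 After error-prone PCR and barcoding, CPEB3 ribozyme mutant libraries were transcribed with T7 RNA polymerase at 37°C for 5 hours, then given 15 min with DNase I before an EDTA stop, and they cleaved during both steps. Reverse transcription with template switching preceded Illumina sequencing. Relative activity divides a variant's cleaved/total read fraction by the unmutated ribozyme's. At least 5 reads were required per variant, and three batches were averaged.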

**Q.** Which self-cleavage does the source give for U74C C81U here?
**A.** The self-cleavage was 1.23.

**Q.** With U74C C81A as the variant, how does the self-cleavage read?
**A.** Its self-cleavage is 1.26.

**Q.** Which self-cleavage does the source give for U72G U74C here?
**A.** Its self-cleavage is 1.04.

**Q.** For G70A U80C, which self-cleavage is on record?
**A.** The self-cleavage was 0.45.

**Q.** For G70A U80A, which self-cleavage is on record?
**A.** The self-cleavage was 1.

**Q.** Which self-cleavage does the source give for U72A C81U here?
**A.** The self-cleavage was 1.11.

**Q.** For U72A C81G, which self-cleavage is on record?
**A.** Its self-cleavage is 1.24.

**Q.** Which self-cleavage does the source give for U72A C81A here?
**A.** Its self-cleavage is 1.26.

**Q.** For G73A U76C, which self-cleavage is on record?
**A.** Its self-cleavage is 1.26.

**Q.** Which self-cleavage does the source give for A77U U78A here?
**A.** The self-cleavage was 0.9.

**Q.** Which self-cleavage does the source give for A77U U78C here?
**A.** The self-cleavage was 1.05.

**Q.** For C79G, which self-cleavage is on record?
**A.** The self-cleavage was 1.13.

**Q.** Which self-cleavage does the source give for C79U here?
**A.** The self-cleavage was 1.17.

**Q.** With C79A as the variant, how does the self-cleavage read?
**A.** Its self-cleavage is 1.19.

**Q.** With U74C A77U as the variant, how does the self-cleavage read?
**A.** The self-cleavage was 1.26.

**Q.** Which self-cleavage does the source give for U74C A77G here?
**A.** Its self-cleavage is 1.32.

**Q.** Which self-cleavage does the source give for U72A G73A here?
**A.** The self-cleavage was 1.28.

**Q.** With U72A G73C as the variant, how does the self-cleavage read?
**A.** The self-cleavage was 1.25.

**Q.** With U80C C81U as the variant, how does the self-cleavage read?
**A.** Its self-cleavage is 1.01.

**Q.** With U80C C81A as the variant, how does the self-cleavage read?
**A.** Its self-cleavage is 1.23.

**Q.** With U76G C81A as the variant, how does the self-cleavage read?
**A.** Its self-cleavage is 1.14.

**Q.** Which self-cleavage does the source give for G70A A77G here?
**A.** The self-cleavage was 0.53.

**Q.** With G70A A77U as the variant, how does the self-cleavage read?
**A.** The self-cleavage was 1.07.

**Q.** With U69C G70C as the variant, how does the self-cleavage read?
**A.** Its self-cleavage is 0.22.

**Q.** Which self-cleavage does the source give for U69C G70U here?
**A.** Its self-cleavage is 0.25.

**Q.** For U69C G70A, which self-cleavage is on record?
**A.** Its self-cleavage is 0.24.

**Q.** For U69C U78C, which self-cleavage is on record?
**A.** Its self-cleavage is 0.69.

**Q.** Which self-cleavage does the source give for U69C U78A here?
**A.** The self-cleavage was 0.66.

**Q.** For U69C U78G, which self-cleavage is on record?
**A.** The self-cleavage was 0.61.

**Q.** With U69G U74C as the variant, how does the self-cleavage read?
**A.** Its self-cleavage is 0.38.

**Q.** For U69G U74G, which self-cleavage is on record?
**A.** The self-cleavage was 0.97.

**Q.** With U80C as the variant, how does the self-cleavage read?
**A.** Its self-cleavage is 1.08.

**Q.** For U80A, which self-cleavage is on record?
**A.** The self-cleavage was 1.13.

**Q.** With U80G as the variant, how does the self-cleavage read?
**A.** The self-cleavage was 1.18.

**Q.** Which self-cleavage does the source give for G73U U76C here?
**A.** The self-cleavage was 1.21.

**Q.** With G73C as the variant, how does the self-cleavage read?
**A.** Its self-cleavage is 1.25.

**Q.** With G73A as the variant, how does the self-cleavage read?
**A.** The self-cleavage was 1.27.

**Q.** Which self-cleavage does the source give for G73U here?
**A.** Its self-cleavage is 1.28.

**Q.** With C71A A77U as the variant, how does the self-cleavage read?
**A.** The self-cleavage was 0.36.

**Q.** With U76C A77U as the variant, how does the self-cleavage read?
**A.** The self-cleavage was 1.07.

**Q.** Which self-cleavage does the source give for U76C A77G here?
**A.** The self-cleavage was 1.07.

**Q.** For U76C U78A, which self-cleavage is on record?
**A.** Its self-cleavage is 1.19.

**Q.** Which self-cleavage does the source give for U76C U78C here?
**A.** Its self-cleavage is 1.01.

**Q.** For G70A, which self-cleavage is on record?
**A.** Its self-cleavage is 0.55.

**Q.** For G70C, which self-cleavage is on record?
**A.** The self-cleavage was 0.31.

**Q.** With G70U as the variant, how does the self-cleavage read?
**A.** The self-cleavage was 0.37.

**Q.** Which self-cleavage does the source give for A75C U78C here?
**A.** Its self-cleavage is 1.15.

**Q.** Which self-cleavage does the source give for U78C U80C here?
**A.** The self-cleavage was 0.82.

**Q.** Which self-cleavage does the source give for U78C U80G here?
**A.** Its self-cleavage is 1.15.

**Q.** With U78C U80A as the variant, how does the self-cleavage read?
**A.** The self-cleavage was 1.2.

**Q.** For G73A U74A, which self-cleavage is on record?
**A.** The self-cleavage was 1.25.

**Q.** Which self-cleavage does the source give for G70U U72G here?
**A.** The self-cleavage was 0.35.

**Q.** For G70U U72C, which self-cleavage is on record?
**A.** The self-cleavage was 0.42.

**Q.** For A75U U80G, which self-cleavage is on record?
**A.** Its self-cleavage is 1.26.

**Q.** With A75U U80C as the variant, how does the self-cleavage read?
**A.** Its self-cleavage is 1.1.

**Q.** For A75U U80A, which self-cleavage is on record?
**A.** The self-cleavage was 1.25.

**Q.** With U74A U78A as the variant, how does the self-cleavage read?
**A.** Its self-cleavage is 1.18.

**Q.** With U74A U78C as the variant, how does the self-cleavage read?
**A.** The self-cleavage was 1.23.

**Q.** With C71G U78C as the variant, how does the self-cleavage read?
**A.** The self-cleavage was 0.36.

**Q.** With U72C U76G as the variant, how does the self-cleavage read?
**A.** Its self-cleavage is 1.23.

**Q.** With U72C U76C as the variant, how does the self-cleavage read?
**A.** Its self-cleavage is 1.16.

**Q.** Which self-cleavage does the source give for U72C U76A here?
**A.** The self-cleavage was 1.23.

**Q.** With C81U as the variant, how does the self-cleavage read?
**A.** Its self-cleavage is 1.18.

**Q.** Which self-cleavage does the source give for C81A here?
**A.** The self-cleavage was 1.05.

**Q.** For C81G, which self-cleavage is on record?
**A.** Its self-cleavage is 1.14.

**Q.** With C71A A75U as the variant, how does the self-cleavage read?
**A.** The self-cleavage was 0.17.

**Q.** For U74C C79A, which self-cleavage is on record?
**A.** Its self-cleavage is 1.31.

**Q.** For U74C C79G, which self-cleavage is on record?
**A.** Its self-cleavage is 1.45.

**Q.** Which self-cleavage does the source give for A75G U78C here?
**A.** Its self-cleavage is 0.67.

**Q.** Which self-cleavage does the source give for A75G U78G here?
**A.** Its self-cleavage is 0.62.

**Q.** Which self-cleavage does the source give for A75G U78A here?
**A.** Its self-cleavage is 1.3.

**Q.** With G70U A77G as the variant, how does the self-cleavage read?
**A.** The self-cleavage was 0.4.

**Q.** Which self-cleavage does the source give for G70C C71U here?
**A.** The self-cleavage was 0.3.

**Q.** For G73A A77G, which self-cleavage is on record?
**A.** The self-cleavage was 1.31.

**Q.** Which self-cleavage does the source give for U69C A75G here?
**A.** The self-cleavage was 0.5.

**Q.** For U69C A75U, which self-cleavage is on record?
**A.** The self-cleavage was 0.44.

**Q.** Which self-cleavage does the source give for G70A U78A here?
**A.** Its self-cleavage is 0.43.

**Q.** For G70A U78G, which self-cleavage is on record?
**A.** Its self-cleavage is 0.46.

**Q.** With G70A U78C as the variant, how does the self-cleavage read?
**A.** Its self-cleavage is 0.8.

Reference: the RNAGym collection of RNA variant scans (doi:10.1093/nar/gkz1192)
